This data set deals with the molecule itself. As to the kind of experiment: native gel or EMSA. For orientation: A gel shift assay detects complexes by their altered migration in electrophoresis.

Numbering of substitutions follows the chain as printed. In names and notes the source's numbering stands.

B1: HBc mutant S3A, expressed in HuH-7 cells (natural protein)
chain: MDIDPYKEFGATVELLSFLPSDFFPSVRDLLDTASALYREALESPEHCSPHHTALRQAILCWGELMTLATWVGVNLEDPASRDLVVSYVNTNMGLKFRQLLWFHISCLTFGRETVIEYLVSFGVWIRTPPAYRPPNAPILSTLPETTVVRRRGRAPRRRTPAPRRRRSQAPRRRRSQSRESQC
On to B1, for which the binding result is given as “binds”.

B2: HBc mutant S7D, expressed in HuH-7 cells (natural protein)
chain: B1 chain with A155D, A162D, S168D, A170D, S176D, S178D, S181D
For the protein B2, the binding result is reported as “binds”.

B3: HBc mutant S7D, E. coli-expressed (natural protein)
chain: B1 chain with A155D, A162D, S168D, A170D, S176D, S178D, S181D
As to B3, the binding result is given as “binds”.

B4: HBc mutant S3D, E. coli-expressed (natural protein)
chain: B1 chain with A155D, A162D, A170D
As to B4, the binding result is listed as “binds”.

B5: HBc mutant S7A, expressed in HuH-7 cells (natural protein)
chain: B1 chain with S168A, S176A, S178A, S181A
As to B5, the binding result is given as “binds”.

B6: HBc mutant S3D, expressed in HuH-7 cells (natural protein)
chain: B1 chain with A155D, A162D, A170D
As for B6, the binding result is reported as “binds”.

The record behind these values is publication PMC5154190, “HBV maintains electrostatic homeostasis by modulating negative charges from phosphoserine and encapsidated nucleic acids” (Scientific Reports, 2016).
